Measurements published in patent US20090181009A1 (ARCA BIOPHARMA, published 2009).

T1: NTB-A Δ5 deletion construct (human, UniProt Q96DU3 22-64)
T1 construct: Expressed in 293 cells and read by flow cytometry
T1 chain: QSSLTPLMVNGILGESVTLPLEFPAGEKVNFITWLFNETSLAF

T2: NTB-A Δ4 deletion construct (human, UniProt Q96DU3 22-94)
T2 construct: Expressed in 293 cells and read by flow cytometry
T2 sequence: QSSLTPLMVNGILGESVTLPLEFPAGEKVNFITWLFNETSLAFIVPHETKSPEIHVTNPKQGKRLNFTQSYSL

T3: human NTB-A (full-length, on cells) (human, UniProt Q96DU3 22-332)
T3 sequence: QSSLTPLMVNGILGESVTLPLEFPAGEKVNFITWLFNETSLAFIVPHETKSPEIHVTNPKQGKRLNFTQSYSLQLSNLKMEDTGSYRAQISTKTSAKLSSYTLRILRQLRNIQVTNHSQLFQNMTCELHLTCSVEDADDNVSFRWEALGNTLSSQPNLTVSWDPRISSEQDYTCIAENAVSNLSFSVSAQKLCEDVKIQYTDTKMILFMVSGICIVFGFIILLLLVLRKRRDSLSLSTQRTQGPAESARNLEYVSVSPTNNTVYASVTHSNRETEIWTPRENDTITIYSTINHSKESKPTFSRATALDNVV

T4: NTB-A extracellular domain fused to a C-terminal tag of V5-His (NTB-A-ECD-V5His) (human)
T4 construct: Produced in HEK-293 cells; also called recombinant NTB-A protein; NTB-A V5-6His
T4 chain: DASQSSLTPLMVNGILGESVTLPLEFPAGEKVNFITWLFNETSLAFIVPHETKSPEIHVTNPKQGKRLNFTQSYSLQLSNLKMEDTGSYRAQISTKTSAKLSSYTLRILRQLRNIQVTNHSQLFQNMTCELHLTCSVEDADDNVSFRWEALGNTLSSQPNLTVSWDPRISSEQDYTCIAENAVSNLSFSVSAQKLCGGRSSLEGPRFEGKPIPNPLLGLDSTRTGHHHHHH


Tests used:
[1] = target: T1, NTB-A Δ5 deletion construct; experiment: flow cytometry on 293 cells expressing the deletion construct
[2] = target: T2, NTB-A Δ4 deletion construct; experiment: as above
[3] = target: T3, human NTB-A (full-length, on cells); experiment: cell-based or functional assay
[4] = target: T4, NTB-A extracellular domain fused to a …; experiment: SPR (BIAcore), mAb captured by anti-mouse mAb, antigen in solution, 25° C.; KD = kd/ka
Description: (§1) Kinetic rate constants (kₐ and kd) were determined using surface plasmon resonance and affinities (KD) were then calculated from the rate constants (kd/kₐ). Surface plasmon resonance was carried out on a BIAcore system (Biacore International AB, Uppsala, Sweden). […] Antigen was diluted to a starting concentration of 46 nM and tested for binding to the mAb samples using a 3-fold dilution series. Each of 5 concentrations was tested twice except the highest concentration which was tested 5 times in total, two times with a short dissociation of 300 seconds followed by three times with a dissociation of 60 minutes. The data sets from the long dissociation experiments were globally fit with the shorter […] experiments to determine binding constants for the interactions. The analysis was carried out in HBS, pH 7.4 buffer at 25° C. (Canziani et al, Anal. Biochem. 352:301-307 […]).

[5] = target: T4, NTB-A extracellular domain fused to a …; experiment: SPR (BIAcore), mAb captured by anti-mouse mAb, antigen in solution, 25° C.
Description: as §1

Binder	binding result [1]	binding result [2]	EC50 of complement-dependent cytotoxicity (CDC) on CA46 cells [3] [ng/mL]	Kd [4] [nM]	koff [5] [s⁻¹]	kon [5] [M⁻¹ s⁻¹]	EC50 of CDC on cells from CLL patients [3] [ng/mL]
anti-NTB-A monoclonal antibody 994.1 (antibody, mouse IgG2b, V domains shown, Murine IgG2b from a hybridoma; also called ATCC Deposit No. PTA-7831) VH: QIQLVQSGPDLKNPGKTVKISCKASGYTFTNFGMNWVKQSPERGLKWMGWINTYNGKPTYADDFKGQFAFSLETSATTAYLQINNLKNEDTAAYFCAKRGGTVDFGYWGQGTTLTVSS VL: EVVLTQSPTTMAASPGEKITVTCSASSPISSNFLHWYQQKPGFSPKLFIYRTSILASGVPARFSGSGSGTSFSLTIGAMEAEDVAAYYCQQGIYMPLTFGAGTKLELKR	no binding	no binding	~10	–	–	–	–
anti-NTB-A monoclonal antibody 480.12 (antibody, mouse IgG2b, V domains shown, Murine IgG2b from a hybridoma; also called ATCC Deposit No. PTA-7832) VH: QIQLVQSGPELKKPGETVKISCKASGYTFTNFGMNWVKQAPGKGLKWMGWINTYSGEATYADDFKGRFAFSLETSASTAFLQISNLKNEDTATYFCARRGGTAEFDYWGQGTPLTVSSA VL: EIVLTQSPTTVAASPGEKITITCSASSSISSNFLHWYQQKPGFSPKLLIYRTSKLASGVPGRFSGSGSGTSYSLTIGTMEAEDVATYYCQQGIYMPLTVGAGTKLELKRA	no binding	no binding	–	1.25	0.0005	404000	9 to 15
